For 27 molecules, peptide exchange yield results are on record in patent US20230241113A1 (IMMATICS BIOTECHNOLOGIES, published 2023).

This test addresses T1, HLA-A*02:01 (human).
T1 construct: captured on streptavidin plates, detected with anti-β2m; also called peptide-receptive MHC molecules; MHC class I
The experiment in a line: UV-ligand exchange + anti-β2m ELISA; exchange yield grade: ≥10% +, ≥20% ++, ≥50 +++, ≥75% ++++. The protocol: The individual peptide-MHC complexes were produced by UV-ligand exchange, where a UV-sensitive peptide is cleaved upon UV-irradiation and exchanged with the peptide of interest as analyzed. Only peptide candidates that can effectively bind and stabilize the peptide-receptive MHC molecules prevent dissociation of the MHC complexes. To determine the yield of the exchange reaction, an ELISA was performed based on the detection of the light chain (β2m) of stabilized MHC complexes. The assay was performed as generally described in Rodenko et al. (Rodenko et al., 2006).
96 well MAXISorp plates (NUNC) were coated over night with 2 μg/ml streptavidin in PBS at room temperature, washed 4× and blocked for 1 h at 37° C. in 2% BSA containing blocking buffer. Refolded HLA-A*02:01/MLA-001 monomers served as standards, covering the range of 15-500 ng/ml. Peptide-MHC monomers of the UV-exchange reaction were diluted 100 fold in blocking buffer. Samples were incubated for 1 h at 37° C., washed four times, incubated with 2 μg/ml HRP conjugated anti-β2m for 1 h at 37° C., washed again and detected with TMB solution that is stopped with […]. Absorption was measured at 450 nm. Candidate peptides that show a high exchange yield (preferably higher than 50%, most preferred higher than 75%) are generally preferred for a generation and production of antibodies or fragments thereof, and/or T cell receptors or fragments thereof, as they show sufficient avidity to the MHC molecules and prevent dissociation of the MHC complexes.
For FVFISPSFL (also called FVFISPSFL) [altORF-019], the peptide exchange yield is 50 to 75%.
Take ALLDAEQSPVAL (also called ALLDAEQSPVAL) [altORF-014]: the peptide exchange yield is no less than 75%.
Regarding FLDEGSLLRL (also called FLDEGSLLRL) [altORF-011], the peptide exchange yield was no less than 75%.
Take KLLDFSTRI (also called KLLDFSTRI) [NUDCD2-001]: the peptide exchange yield was no less than 75%.
Then IAAGVPNTDA (also called IAAGVPNTDA) [altORF-025], with 20 to 50%.
Take SLYDVPVGA (also called SLYDVPVGA) [altORF-020]: the peptide exchange yield was no less than 75%.
As for TLTSLNILL (also called TLTSLNILL) [altORF-022], the peptide exchange yield was no less than 75%.
With MLLPWLPKL (also called MLLPWLPKL) [altORF-017], the peptide exchange yield was no less than 75%.
Then LLWEFPSMA (also called LLWEFPSMA) [altORF-027], with no less than 75%; and KMMTFFQGL (also called KMMTFFQGL) [altORF-016], with no less than 75%; and ISVLNLSAI (also called ISVLNLSAI) [altORF-023], with 20 to 50%.
Turning to HLDSMNVSI (also called HLDSMNVSI) [altORF-010], the peptide exchange yield was no less than 75%.
For the molecule GLEVLDALL (also called GLEVLDALL) [altORF-021], the peptide exchange yield lay within 20 to 50%.
Then ALLPHAPEAV (also called ALLPHAPEAV) [altORF-009], with 50 to 75%; and VLWDLRPSSLI (also called VLWDLRPSSLI) [altORF-015], with no less than 75%.
Take VVLPIVITL (also called VVLPIVITL) [altORF-029]: the peptide exchange yield is no less than 75%.
VLISLPGKV (also called VLISLPGKV) [altORF-018]: the peptide exchange yield was in the range of 20 to 50%.
In the case of NLVMPLLHI (also called NLVMPLLHI) [altORF-013], the peptide exchange yield fell in the range of 20 to 50%.
Consider SQLEKPETA (also called SQLEKPETA) [altORF-026], for which the peptide exchange yield lay within 50 to 75%.
As to KLWTSLVNL (also called KLWTSLVNL) [altORF-024], the peptide exchange yield was no less than 75%.
Take LLRLTLLPL (also called LLRLTLLPL) [altORF-028]: the peptide exchange yield lay within 20 to 50%.
Then VLSVSAVLGA (also called VLSVSAVLGA) [altORF-030], with 50 to 75%; and FLLVPSPIWQL (also called FLLVPSPIWQL) [altORF-001], with no less than 75%.
Take ALLDVLVKL (also called ALLDVLVKL) [COLPDG-001]: the peptide exchange yield was no less than 75%.
With SLLDKLSGI (also called SLLDKLSGI) [altORF-008], the peptide exchange yield is no less than 75%.
The figure for FASERPPSV (also called FASERPPSV) [altORF-031] is no less than 75%; for LLIEVSEEL (also called LLIEVSEEL) [altORF-012] it is no less than 75%.
